B1: linear peptide 3 [modified: 5(6)-carboxyfluorescein on the N-terminus; 5(6)-carboxyfluorescein on the N-terminus] / B-RCAL (BÜHLMANN recombinant calprotectin; His6-linker-S100A9-linker-S100A8) [human] (parent complex)
chain 1: RSPESVAFPMFQSHWYSG
chain 2: MTCKMSQLERNIETIINTFHQYSVKLGHPDTLNQGEFKELVRKDLQNFLKKENKNEKVIEHIMEDLDTNADKQLSFEEFIMLMARLTWASHEKMHEGDEGPGHHHKPGLGEGTPLEVLFQGPMLTELEKALNSIIDVYHKYSLIKGNFHAVYRDDLKKLLETECPQYIRKKGADVWFKELDINTDGAVNFQEFLILVIKMGVAAHKKSHEESHKE

Variants of: B1
Test: SPR; peptide injected at 500 nM; single measurement; calprotectin immobilized; read off a plot

| Variant | response |
| --- | --- |
| chain 1 RSPASVAFPMFQSHWYSG [chain 1 E4A] | ~130 RU |
